Source: the DeepSol protein solubility set

Test: soluble on expression in E. coli; label from the status in PepcDB or PDB records

Row | Sequence | soluble on expression in E. coli
1 | MGSDKIHHHHHHMQDLVQAYKEEKNARIKERILAVKLHVVDGKSEKEVSKMLNKGYSTIKLWIGKYKKEGLDGLKDKPRSGRPRKVEEEKIKQILEDKPQKYGIQQEYWTMKTLKIALQEQGIEYKKSRLYELVHELGYNLVKPRPTNIQAEKDKWEDFKKIKKLERKALFFLDECRTVISTSIKKVLAKVGSKPVMRVNIGFSSIYVILAINAWTGEVVVSLAKRPNSESVKYFLRYFKRRVGSGRVYMVMDNYSPHKTKGTLEVCRRKGIHPVFTPPYSPELNMAEAVFKSLKNYMSNKIFYTIEDVKNCIKQFFEENKYRFNLNAITYLGLDKIEV | not soluble
2 | MTRDLAPALQALSPLLGSWAGRGAGKYPTIRPFEYLEEVVFAHVGKPFLTYTQQTRAVADGKPLHSETGYLRVCRPGCVELVLAHPSGITEIEVGTYSVTGDVIELELSTRADGSIGLAPTAKEVTALDRSYRIDGDELSYSLQMRAVGQPLQDHLAAVLHRQRRSHHHHHH | soluble
3 | MNFFKRKFSFSEDEGEPMDDVNSGPPSSFSFQSIANKVSNTISAPTSPAKSRESLAAALERSLNHDRSRGEPLMKDAKVLLVIDSHHVDWSKYFRNHTEYAIRVEQGDIDELDVMCTEKNCTVELNTPGKDVRTFTPSAVFLGAGATRCAQLKTITRAFIAAHIPFLNSHTSAVAFLDRNNLKKQLKKITLSDGASIPMLPIVHYPHFHKFHQSQSSTYPMVVSVNEGFQGIGKIKVNNHEELCDVEGMLQIMSKGDTEVEVQPFVDAKYDLHIQKIGHEYKTFIRRGICKHWKSNVGSSVLEQISTCERHKKYLKAITDHVGPMHICSIDILVSKEGREFVHDVNDVIAYFGESAEDDRRAASLLLRALVAPRITSPIAAEPPATSPTTSAVTNGHGNHGPAPAVPTRRLPPHPSSSSAAPPRGHMSDKVESRHKDHYDPPPQIPRTGSRESVSYVDDTMGQLKRTFAGFFGE | not soluble
4 | MAHHHHHHMLAGLLRGIRAATAPQRSRRRFLPRMRQRSSFSAVSSAAMFKNTLTTQRAQKGDYGFNVFHNSNPQHGGSYARHERRMREDEVEDFLKSVKHWRPLHEDVADGDLVDDAQSSSSTSAPAAGPPMPRLARMGEEAIMRTFQFETFREAYLFMGRVWAFCYGSDKYPHVTWEGTALTVYLYSSSFRGLSKREARVAAFLNDQYNMLRKSKWQQRRIVDGIVRQSAVEELLGEEVAAHLAHRETLRTAPLQEVQDGPRSWRSAIGSPLRSPNSGSDGAGSSMGVRES | not soluble
5 | MAEPQPASSGLTDETAFSCCSDPDPSTKDFLLQQTMLRIKDPKKSLDFYTRVLGLTLLQKLDFPAMKFSLYFLAYEDKNDIPKDKSEKTAWTFSRKATLELTHNWGTEDDETQSYHNGNSDPRGFGHIGIAVPDVYSACKRFEELGVKFVKKPDDGKMKGLAFIQDPDGYWIEILNPNKIATII | soluble
6 | MSYYHHHHHHLESTSLYKKAGMSDFYDPRERDPSVSRRPQNRQSDEWIRELLLRGTIARVATLWQGEDGAAFPFITPLAYAYRPEQGDLVYHTNVVGRLRANAGQGHPATLEVSEIGQFLPSNSPLELSVQYRSVMVFGTARVLAGEDARAALTTLSERVFPGLKVGETTRPISEDDLKRTSVYSLSIDRWSGKENWAEQAIQEEDWPALGPEWLG | soluble
7 | MGSDKIHHHHHHMSDVDTHPIDRGAGGHNPQKPIRVAQIVGKMVGGGVEAVVMNYYRHIDRSKVQFDFLVDEDSTRVPEEEITSLGGRVFRIPPYQHPIRYRRELIRLMREQQWPIVHSNINTLSVFPLSAAKKVGVPVRIAHSHSTMGKGEFAKNVMKLVLRPFANVYPTVRFACSRYAGKWLFGKNADFTVIPNAIELDKFRFNTEMRKQTRKELGISDDTFLIGHVGRFMPQKNQTFLVDVLAGLLPKRPDAMLAFVGDGPDRTAVQQHVEELGMADHVLFLGQRSDVNRLYQAFDAFCLPSLYEGLGIVAVEAQVADLPCLLSDVVPSEADVTASSYFLQITDVKPWIETLSNLHSSKRSDQISGDIEEYDIQRCANSLVKKYESFICK | not soluble
8 | MEAEPLETEQDEWRKERMRVLDEWCEIELKGADALKMDVTREPGSPTVAVAPETSLQDLYPLLIATSSSNAPPSATPTDDVTDPEVQVVSRESIDNRSTFNRIIDVCLCRPVKSQMGPKAYTDKTLILKLAQIPYDHENGTHWLLLSDYFNNVSRSLMTSSEYSHVTNPSRVGAHWVTVGFQSATPHTDFRGCGVLGLLQMHTFTQRVPANLLRAIVLLATTEPNDFPLAVVSINITSILLTQLKKGALDNFGNEIEGLYPFFSALHASAMCRFCSIYKSQKCTLANTQTIFSEITRQLEKSPLSLIMLLNPTNDELINTLL | not soluble
